Measurements from US20160137696A1 (Bristol-Myers Squibb, published 2016).
Starred links: 1 amine or outer side, 2 acyl side, 3 side chain; linkers in the order of their positions; H or OH if unused. Positions of bridges follow the written chain, without caps; N, C: chain ends. Non-standard residues stand in square brackets, D forms with d. Groups on a side chain read outwards from the residue. Primed or numbered codes have the meaning given here. No end group written: not given here. *: point of attachment. Pra′ = propargylglycine (built in as LPH), clicked to a 1-substituted triazol-4-yl-alanine, O=C([C@H](Cc1cn([*:3])nn1)N[*:1])[*:2]; X1 = (S)‑3‑carboxy‑3‑(15-carboxypentadecanoylamino)propyl, O=C(O)CCCCCCCCCCCCCCC(=O)N[C@@H](CC*)C(=O)O; Pra″ = its azide, alkyne or alkene has reacted where a group follows in round brackets; Pra(4) = propargylglycine, clicked with an azide to give a triazolylalanine residue; X2 = (S)‑3‑carboxy‑3‑palmitamidopropyl, CCCCCCCCCCCCCCCC(=O)N[C@@H](CC*)C(=O)O; Pra(3) = propargylglycine, clicked to an azide to give a triazolyl-alanine; triazole = 1,2,3-triazole formed by click of the Pra alkyne with the azide; Trp(1-CH2CO) = O=C([C@H](Cc1cn(CC(=O)[*:3])c2ccccc12)N[*:1])[*:2]; Phe(3,4,5-F3) = N[C@@H](Cc1cc(F)c(F)c(F)c1)C(=O)O; C18 diacid = O=C(O)CCCCCCCCCCCCCCCCC(=O)*; C16 diacid = O=C(O)CCCCCCCCCCCCCCC(=O)*; γGlu = O=C(O)[C@H](CCC(=O)[*:2])N[*:1]; Aha = [N-]=[N+]=NCC[C@H](N)C(=O)O; Hyp = O=C(O)[C@@H]1C[C@@H](O)CN1; NMeF = CN[C@@H](Cc1ccccc1)C(=O)O; dHyp = O=C(O)[C@H]1C[C@H](O)CN1; NMeNle = CCCC[C@H](NC)C(=O)O; triazole″ = not defined here; Bzt = benzothienylalanine; Pip = O=C(O)[C@@H]1CCCCN1; NMeA = CN[C@@H](C)C(=O)O; Orn = NCCC[C@H](N)C(=O)O; PEG7′ = not defined here; Pra = C#CC[C@H](N)C(=O)O; Dab = NCC[C@H](N)C(=O)O; Dap = NC[C@H](N)C(=O)O

Experiments:
[1] = biological target: T1, Recombinant Human PD-L1-TVMV-His (human, UniProt Q9NZQ7 19-239); experiment: HTRF vs PD-1-Ig; C = IC50 0.0003-0.0099 µM
T1 construct: expressed in HEK293T cells; also called PD-L1-His; hPD-L1(19-239)-TVMV-His
T1 sequence (Q9NZQ7 other isoform, or with tags, fused parts or gaps limits assumed): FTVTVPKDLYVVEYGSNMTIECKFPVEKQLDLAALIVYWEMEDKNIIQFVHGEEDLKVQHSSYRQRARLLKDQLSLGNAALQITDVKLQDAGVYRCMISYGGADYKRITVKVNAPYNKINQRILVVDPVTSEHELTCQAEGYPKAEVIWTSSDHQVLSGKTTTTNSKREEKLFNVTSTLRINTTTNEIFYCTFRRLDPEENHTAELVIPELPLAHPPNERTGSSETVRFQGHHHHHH
Protocol: (§1) Homogenous Time-Resolved Fluorescence (HTRF) Assays of Binding of Soluble PD-1 to Soluble PD-L1. Soluble PD-1 and soluble PD-L1 refers to proteins with carboxyl-end truncations that remove the transmembrane-spanning regions and are fused to heterologous sequences, specifically the Fc portion of the human immunoglobuling G sequence (Ig) or the hexahistidine epitope tag (His). All binding studies were performed in an HTRF assay buffer consisting of dPBS supplemented with 0.1% (w/v) bovine serum albumin and 0.05% (v/v) Tween-20. For the PD-1-Ig/PD-L1-His binding assay, inhibitors were pre-incubated with PD-L1-His (10 nM final) for 15 m in 4 μl of assay buffer, followed by addition of PD-1-Ig (20 nM final) in 1 μl of assay buffer and further incubation for 15 m. PD-L1 fusion proteins from either human, cynomologous macaques, mouse, or other species were used. HTRF detection was achieved using europium crypate-labeled anti-Ig monoclonal antibody (1 nM final) and allophycocyanin (APC) labeled anti-His monoclonal antibody (20 nM final). Antibodies were diluted in HTRF detection buffer and 5 μl was dispensed on top of binding reaction. The reaction was allowed to equilibrate for 30 minutes and signal (665 nm/620 nm ratio) was obtained using an EnVision fluorometer. Additional binding assays were established between PD-I-Ig/PD-L2-His (20 and 5 nM, respectively), CD80-His/PD-L1-Ig (100 and 10 nM, respectively) and CD80-His/CTLA4-Ig (10 and 5 nM, respectively). Binding/competition studies between biotinylated Compound No. 71 and human PD-L1-His were performed as follows. Macrocyclic peptide inhibitors were pre-incubated with PD-L1-His (10 nM final) for 60 minutes in 4 μl of assay buffer followed by addition of biotinylated Compound No. 71 (0.5 nM final) in 1 μl of assay buffer. Binding was allowed to equilibrate for 30 minutes followed by addition of europium crypated labeled Streptavidin (2.5 pM final) and APC-labeled anti-His (20 nM final) in 5 μl of HTRF buffer. The reaction was allowed to equilibrate for 30 m and signal (665 nm/620 nm ratio) was obtained using an EnVision fluorometer.

[2] = biological target: T1, Recombinant Human PD-L1-TVMV-His; experiment: HTRF vs PD-1-Ig; B = IC50 0.01-0.099 µM
Protocol: as §1

{CH2CO}-Y[NMeA]NP[Dap]L[Hyp]WS[Bzt][NMeNle][NMeNle]RCG[Pra] (thioether N-14) [INT-1300A]
IC50 [1]: 0.3 to 9.9 nM

{CH2CO}-Y[NMeA]NP[Dap]L[Hyp]WS[Trp(1-CH2CO)][NMeNle][NMeNle]LCG[Pra(4)]([triazole-Dab-C16 diacid]) (thioether N-14) [Example 14083]
IC50 [2]: 10 to 99 nM

B1: INT-130AA (peptide)
peptide: {CH2CO}-Y[NMeA]NP[Dap]L[Hyp]W[Dab][Trp(1-CH2CO)][NMeNle][NMeNle]LCGG[Pra]-OH
modifications: thioether N-14
SMILES: C#CC[C@H](NC(=O)CNC(=O)CNC(=O)[C@@H]1CSCC(=O)N[C@@H](Cc2ccc(O)cc2)C(=O)N(C)[C@@H](C)C(=O)N[C@@H](CC(N)=O)C(=O)N2CCC[C@H]2C(=O)N[C@@H](CN)C(=O)N[C@@H](CC(C)C)C(=O)N2C[C@H](O)C[C@H]2C(=O)N[C@@H](Cc2c[nH]c3ccccc23)C(=O)N[C@@H](CCN)C(=O)N[C@@H](Cc2cn(CC(=O)O)c3ccccc23)C(=O)N(C)[C@@H](CCCC)C(=O)N(C)[C@@H](CCCC)C(=O)N[C@@H](CC(C)C)C(=O)N1)C(=O)O
notes: also called Intermediate 130AA
IC50 [2]: 10 to 99 nM

B2: INT-130AF (peptide)
peptide: {CH2CO}-Y[NMeA]NP[Dap]L[Hyp]W[Dab][Trp(1-CH2CO)][NMeNle][NMeNle]LC[Pra]-OH
modifications: thioether N-14
SMILES: C#CC[C@H](NC(=O)[C@@H]1CSCC(=O)N[C@@H](Cc2ccc(O)cc2)C(=O)N(C)[C@@H](C)C(=O)N[C@@H](CC(N)=O)C(=O)N2CCC[C@H]2C(=O)N[C@@H](CN)C(=O)N[C@@H](CC(C)C)C(=O)N2C[C@H](O)C[C@H]2C(=O)N[C@@H](Cc2c[nH]c3ccccc23)C(=O)N[C@@H](CCN)C(=O)N[C@@H](Cc2cn(CC(=O)O)c3ccccc23)C(=O)N(C)[C@@H](CCCC)C(=O)N(C)[C@@H](CCCC)C(=O)N[C@@H](CC(C)C)C(=O)N1)C(=O)O
IC50 [1]: 0.3 to 9.9 nM

{CH2CO}-Y[NMeA]DPHQ[Hyp]WSW[NMeNle][NMeNle]ECG[Pra′]([triazole-X1]) (thioether N-14) [Example 14068]
IC50 [2]: 10 to 99 nM

{CH2CO}-[Phe(3,4,5-F3)][NMeF][NMeNle][dP]DV[NMeF][Orn][dP]WYLCG[Pra′]([triazole-X1]) (thioether N-13) [Example 14073]
IC50 [2]: 10 to 99 nM

B3: Example 14123 (peptide)
peptide: FXDPXLPWXWXXLCGE
modifications: ClAc-Tyr(4-F)-Pip-Asp-Pro-Dap-Leu-Hyp-Trp-Dab-Trp'-mNle-mNle-Leu-Cys-Gly-((S)-4-(Fmoc-amino)-5-(tert-butoxy)-5-oxopentanoic acid)-[Modified resin 14A], deprotected; Glu joined through its gamma-carboxyl; 14A = ethylenediamine amide of the gamma-carboxyl of Glu N-(17-carboxyheptadecanoyl); cyclised ClAc-Cys
IC50 [1]: 0.3 to 9.9 nM

{CH2CO}-Y[NMeA]DPHK[Hyp]WK[Trp(1-CH2CO)][NMeNle][NMeNle]ECG[Pra′]([triazole-X1]) (thioether N-14) [Example 14075]
IC50 [2]: 10 to 99 nM

{CH2CO}-Y[NMeA]DPHQ[Hyp]WSW[NMeNle][NMeNle]ECG[Pra(3)]([triazole″-X2])G (thioether N-14; reading uncertain) [Example 14062]
IC50 [2]: 10 to 99 nM

{CH2CO}-Y[Pip]NP[DapMe]L[Hyp]W[Dab][Trp(1-CH2CO)][NMeNle][NMeNle]ECG[Pra] (thioether N-14 (inferred)) [INT-130AL]
IC50 [1]: 0.3 to 9.9 nM

{CH2CO}-Y[Pip]NP[Dap]L[Hyp]W[Dab][Trp(1-CH2CO)][NMeNle][NMeNle]LCG[Pra] (thioether N-14 (inferred)) [INT-130AI]
IC50 [1]: 0.3 to 9.9 nM

{CH2CO}-Y[NMeA]DPHQ[Hyp]WSW[NMeNle][NMeNle]ECG[Pra′]([triazole-X1])G (thioether N-14) [Example 14069]
IC50 [2]: 10 to 99 nM

B4: INT-130AB (peptide)
peptide: {CH2CO}-Y[NMeA]NP[Dap]L[Hyp]W[Dab][Trp(1-CH2CO)][NMeNle][NMeNle]LCGGG[Pra]-OH
modifications: thioether N-14
SMILES: C#CC[C@H](NC(=O)CNC(=O)CNC(=O)CNC(=O)[C@@H]1CSCC(=O)N[C@@H](Cc2ccc(O)cc2)C(=O)N(C)[C@@H](C)C(=O)N[C@@H](CC(N)=O)C(=O)N2CCC[C@H]2C(=O)N[C@@H](CN)C(=O)N[C@@H](CC(C)C)C(=O)N2C[C@H](O)C[C@H]2C(=O)N[C@@H](Cc2c[nH]c3ccccc23)C(=O)N[C@@H](CCN)C(=O)N[C@@H](Cc2cn(CC(=O)O)c3ccccc23)C(=O)N(C)[C@@H](CCCC)C(=O)N(C)[C@@H](CCCC)C(=O)N[C@@H](CC(C)C)C(=O)N1)C(=O)O
notes: also called Intermediate 130AB
IC50 [2]: 10 to 99 nM

{CH2CO}-Y[NMeA]NP[Dap]L[Hyp]WS[Trp(1-CH2CO)][NMeNle][NMeNle]LCG[Pra′]([triazole-X2]) (thioether N-14) [Example 14080]
IC50 [2]: 10 to 99 nM

{CH2CO}-Y[Pip]NP[Dap]L[Hyp]W[Dab][Trp(1-CH2CO)][NMeNle][NMeNle]ECG[Pra] (thioether N-14 (inferred)) [INT-130AJ]
IC50 [1]: 0.3 to 9.9 nM

{CH2CO}-Y[Pip]NP[Dap]L[Hyp]W[Dab][Trp(1-CH2CO)][NMeNle][NMeNle]LCG[Dap]([γGlu-C18 diacid]) (thioether N-14 (inferred)) [Example 13152]
IC50 [1]: 0.3 to 9.9 nM

{CH2CO}-Y[NMeA]NP[Dap]L[Hyp]WS[Bzt][NMeNle][NMeNle]RCG[Aha] (thioether N-14) [INT-1300B]
IC50 [1]: 0.3 to 9.9 nM

{CH2CO}-Y[NMeA]NP[Dap]L[Hyp]W[Dab][Trp(1-CH2CO)][NMeNle][NMeNle]LCGGG[Pra″]([triazole-PEG7′-γGlu-C18 diacid]) (thioether N-14 (inferred)) [Example 13124]
IC50 [2]: 10 to 99 nM

{CH2CO}-Y[NMeA]DPHK[Hyp]WKW[NMeNle][NMeNle]ECG[Pra(3)]([triazole″-2,5,8,11‑tetraoxatridecyl])G (thioether N-14; reading uncertain) [Example 14063]
IC50 [2]: 10 to 99 nM

B5: INT-130AG (peptide)
peptide: {CH2CO}-Y[NMeA]NP[Dap]L[Hyp]W[Dab][Trp(1-CH2CO)][NMeNle][NMeNle]EC[Pra]-OH
modifications: thioether N-14
SMILES: C#CC[C@H](NC(=O)[C@@H]1CSCC(=O)N[C@@H](Cc2ccc(O)cc2)C(=O)N(C)[C@@H](C)C(=O)N[C@@H](CC(N)=O)C(=O)N2CCC[C@H]2C(=O)N[C@@H](CN)C(=O)N[C@@H](CC(C)C)C(=O)N2C[C@H](O)C[C@H]2C(=O)N[C@@H](Cc2c[nH]c3ccccc23)C(=O)N[C@@H](CCN)C(=O)N[C@@H](Cc2cn(CC(=O)O)c3ccccc23)C(=O)N(C)[C@@H](CCCC)C(=O)N(C)[C@@H](CCCC)C(=O)N[C@@H](CCC(=O)O)C(=O)N1)C(=O)O
IC50 [1]: 0.3 to 9.9 nM

{CH2CO}-Y[NMeA]NP[Dap]L[Hyp]W[Dab][Trp(1-CH2CO)][NMeNle][NMeNle]LCG[Dap]([γGlu-C18 diacid]) (thioether N-14 (inferred)) [Example 13153]
IC50 [1]: 0.3 to 9.9 nM

{CH2CO}-[Phe(3,4,5-F3)][NMeF][NMeNle][dHyp]DV[NMeF]D[dP]WYLCG[Pra′]([triazole-X1]) (thioether N-13) [Example 14074]
IC50 [2]: 10 to 99 nM

{CH2CO}-Y[NMeA]NP[Dap]L[Hyp]W[Dab][Trp(1-CH2CO)][NMeNle][NMeNle]DC[Pra]-OH (thioether N-14 (inferred)) [INT-130AH]
IC50 [1]: 0.3 to 9.9 nM

{CH2CO}-Y[NMeA]DPHK[Hyp]WK[Trp(1-CH2CO)][NMeNle][NMeNle]ECG[Pra′]([triazole-X2]) (thioether N-14) [Example 14079]
IC50 [2]: 10 to 99 nM

{CH2CO}-Y[Pip]NP[DapMe]L[Hyp]W[Dab][Trp(1-CH2CO)][NMeNle][NMeNle]LCG[Pra] (thioether N-14 (inferred)) [INT-130AK]
IC50 [1]: 0.3 to 9.9 nM
